Measurements from US20180155451A1 (published 2018).

T1: FcγRIIa H (human, UniProt P12318 34-217)
T1 construct: extracellular domain; also called FcgRIIa H type; 2aH; not shown: His tag at the C terminus
T1 sequence (looked up): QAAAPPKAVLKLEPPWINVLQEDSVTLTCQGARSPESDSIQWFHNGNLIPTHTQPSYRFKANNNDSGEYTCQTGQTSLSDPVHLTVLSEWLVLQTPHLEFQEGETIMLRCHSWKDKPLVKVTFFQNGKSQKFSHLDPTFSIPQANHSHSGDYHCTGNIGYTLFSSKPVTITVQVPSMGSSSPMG

B1: GpH7-B3 variant I332_02A/GpL16-k0 (antibody, human IgG1, kappa)
heavy: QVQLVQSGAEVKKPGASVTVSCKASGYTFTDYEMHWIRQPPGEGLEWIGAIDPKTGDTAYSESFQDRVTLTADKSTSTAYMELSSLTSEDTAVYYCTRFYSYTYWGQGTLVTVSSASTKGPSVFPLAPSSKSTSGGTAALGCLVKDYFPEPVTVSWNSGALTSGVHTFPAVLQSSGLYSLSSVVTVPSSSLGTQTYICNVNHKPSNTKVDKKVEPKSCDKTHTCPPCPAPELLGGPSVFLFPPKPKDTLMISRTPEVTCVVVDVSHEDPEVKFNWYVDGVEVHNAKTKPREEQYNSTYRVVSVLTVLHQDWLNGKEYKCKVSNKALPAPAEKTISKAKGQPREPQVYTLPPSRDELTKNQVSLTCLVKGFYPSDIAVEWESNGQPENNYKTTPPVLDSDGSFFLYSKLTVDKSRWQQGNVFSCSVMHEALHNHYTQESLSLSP
light: DIVMTQSPLSLPVTPGEPASISCQASESLVHSNRNTYLHWYLQKPGQSPQLLIYKVSNRFSGVPDRFSGSGSGTDFTLKISRVEAEDVGVYYCSQNTHVPPTFGQGTKVEIERTVAAPSVFIFPPSDEQLKSGTASVVCLLNNFYPREAKVQWKVDNALQSGNSQESVTEQDSKDSTYSLSSTLTLSKADYEKHKVYACEVTHQGLSSPVTKSFNRGEC
notes: also called Ho Ab I332_02A
B2: GpH7-B3 variant H268_13S/GpL16-k0 (antibody, human IgG1, kappa)
heavy: not shown
light: DIVMTQSPLSLPVTPGEPASISCQASESLVHSNRNTYLHWYLQKPGQSPQLLIYKVSNRFSGVPDRFSGSGSGTDFTLKISRVEAEDVGVYYCSQNTHVPPTFGQGTKVEIERTVAAPSVFIFPPSDEQLKSGTASVVCLLNNFYPREAKVQWKVDNALQSGNSQESVTEQDSKDSTYSLSSTLTLSKADYEKHKVYACEVTHQGLSSPVTKSFNRGEC
notes: also called Ho Ab H268_13S
B3: GpH7-B3 variant H268_18N/GpL16-k0 (antibody, human IgG1, kappa)
heavy: not shown
light: DIVMTQSPLSLPVTPGEPASISCQASESLVHSNRNTYLHWYLQKPGQSPQLLIYKVSNRFSGVPDRFSGSGSGTDFTLKISRVEAEDVGVYYCSQNTHVPPTFGQGTKVEIERTVAAPSVFIFPPSDEQLKSGTASVVCLLNNFYPREAKVQWKVDNALQSGNSQESVTEQDSKDSTYSLSSTLTLSKADYEKHKVYACEVTHQGLSSPVTKSFNRGEC
notes: also called Ho Ab H268_18N
B4: GpH7-B3 variant G236_10E/GpL16-k0 (antibody, human IgG1, kappa)
heavy: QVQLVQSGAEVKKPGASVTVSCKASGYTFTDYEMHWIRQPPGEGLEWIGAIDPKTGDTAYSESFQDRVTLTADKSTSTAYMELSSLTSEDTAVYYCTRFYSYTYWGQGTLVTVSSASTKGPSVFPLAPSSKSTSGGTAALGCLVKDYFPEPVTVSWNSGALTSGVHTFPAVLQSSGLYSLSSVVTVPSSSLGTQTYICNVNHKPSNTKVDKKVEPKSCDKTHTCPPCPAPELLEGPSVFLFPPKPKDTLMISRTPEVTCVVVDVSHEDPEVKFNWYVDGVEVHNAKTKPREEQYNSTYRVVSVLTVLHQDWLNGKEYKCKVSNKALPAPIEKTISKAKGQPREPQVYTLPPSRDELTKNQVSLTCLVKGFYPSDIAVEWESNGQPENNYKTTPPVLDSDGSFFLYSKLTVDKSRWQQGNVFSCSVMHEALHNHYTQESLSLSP
light: DIVMTQSPLSLPVTPGEPASISCQASESLVHSNRNTYLHWYLQKPGQSPQLLIYKVSNRFSGVPDRFSGSGSGTDFTLKISRVEAEDVGVYYCSQNTHVPPTFGQGTKVEIERTVAAPSVFIFPPSDEQLKSGTASVVCLLNNFYPREAKVQWKVDNALQSGNSQESVTEQDSKDSTYSLSSTLTLSKADYEKHKVYACEVTHQGLSSPVTKSFNRGEC
notes: also called Ho Ab G236_10E
B5: GpH7-B3 variant I332_06M/GpL16-k0 (antibody, human IgG1, kappa)
heavy: not shown
light: DIVMTQSPLSLPVTPGEPASISCQASESLVHSNRNTYLHWYLQKPGQSPQLLIYKVSNRFSGVPDRFSGSGSGTDFTLKISRVEAEDVGVYYCSQNTHVPPTFGQGTKVEIERTVAAPSVFIFPPSDEQLKSGTASVVCLLNNFYPREAKVQWKVDNALQSGNSQESVTEQDSKDSTYSLSSTLTLSKADYEKHKVYACEVTHQGLSSPVTKSFNRGEC
notes: also called Ho Ab I332_06M
B6: GpH7-B3 variant G236_03V/GpL16-k0 (antibody, human IgG1, kappa)
heavy: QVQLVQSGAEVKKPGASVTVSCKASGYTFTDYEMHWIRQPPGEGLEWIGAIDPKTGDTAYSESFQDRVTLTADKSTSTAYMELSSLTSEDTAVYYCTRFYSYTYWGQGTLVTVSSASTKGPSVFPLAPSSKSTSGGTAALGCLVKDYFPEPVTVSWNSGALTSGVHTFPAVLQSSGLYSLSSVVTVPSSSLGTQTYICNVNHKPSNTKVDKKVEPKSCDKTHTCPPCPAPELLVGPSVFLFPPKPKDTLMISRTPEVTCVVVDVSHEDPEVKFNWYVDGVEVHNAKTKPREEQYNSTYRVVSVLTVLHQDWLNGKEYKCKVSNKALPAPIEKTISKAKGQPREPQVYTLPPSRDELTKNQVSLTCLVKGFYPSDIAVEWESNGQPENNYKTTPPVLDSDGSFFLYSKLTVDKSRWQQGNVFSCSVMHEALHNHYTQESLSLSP
light: DIVMTQSPLSLPVTPGEPASISCQASESLVHSNRNTYLHWYLQKPGQSPQLLIYKVSNRFSGVPDRFSGSGSGTDFTLKISRVEAEDVGVYYCSQNTHVPPTFGQGTKVEIERTVAAPSVFIFPPSDEQLKSGTASVVCLLNNFYPREAKVQWKVDNALQSGNSQESVTEQDSKDSTYSLSSTLTLSKADYEKHKVYACEVTHQGLSSPVTKSFNRGEC
notes: also called Ho Ab G236_03V
B7: GpH7-B3 variant G236_07I/GpL16-k0 (antibody, human IgG1, kappa)
heavy: not shown
light: DIVMTQSPLSLPVTPGEPASISCQASESLVHSNRNTYLHWYLQKPGQSPQLLIYKVSNRFSGVPDRFSGSGSGTDFTLKISRVEAEDVGVYYCSQNTHVPPTFGQGTKVEIERTVAAPSVFIFPPSDEQLKSGTASVVCLLNNFYPREAKVQWKVDNALQSGNSQESVTEQDSKDSTYSLSSTLTLSKADYEKHKVYACEVTHQGLSSPVTKSFNRGEC
notes: also called Ho Ab G236_07I
B8: GpH7-B3 variant H268_10E/GpL16-k0 (antibody, human IgG1, kappa)
heavy: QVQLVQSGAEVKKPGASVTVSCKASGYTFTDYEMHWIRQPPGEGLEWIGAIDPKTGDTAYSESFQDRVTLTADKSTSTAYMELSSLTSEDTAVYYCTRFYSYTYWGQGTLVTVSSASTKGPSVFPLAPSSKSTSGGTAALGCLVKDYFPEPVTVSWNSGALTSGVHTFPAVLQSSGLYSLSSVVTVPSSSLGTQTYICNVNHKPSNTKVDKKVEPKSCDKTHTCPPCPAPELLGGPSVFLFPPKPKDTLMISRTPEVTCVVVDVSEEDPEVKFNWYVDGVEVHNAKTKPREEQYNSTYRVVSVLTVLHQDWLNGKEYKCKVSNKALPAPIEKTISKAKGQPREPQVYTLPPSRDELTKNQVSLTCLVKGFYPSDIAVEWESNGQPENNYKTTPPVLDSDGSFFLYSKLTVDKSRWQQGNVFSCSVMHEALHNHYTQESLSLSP
light: DIVMTQSPLSLPVTPGEPASISCQASESLVHSNRNTYLHWYLQKPGQSPQLLIYKVSNRFSGVPDRFSGSGSGTDFTLKISRVEAEDVGVYYCSQNTHVPPTFGQGTKVEIERTVAAPSVFIFPPSDEQLKSGTASVVCLLNNFYPREAKVQWKVDNALQSGNSQESVTEQDSKDSTYSLSSTLTLSKADYEKHKVYACEVTHQGLSSPVTKSFNRGEC
notes: also called Ho Ab H268_10E
B9: GpH7-B3 variant I332_13S/GpL16-k0 (antibody, human IgG1, kappa)
heavy: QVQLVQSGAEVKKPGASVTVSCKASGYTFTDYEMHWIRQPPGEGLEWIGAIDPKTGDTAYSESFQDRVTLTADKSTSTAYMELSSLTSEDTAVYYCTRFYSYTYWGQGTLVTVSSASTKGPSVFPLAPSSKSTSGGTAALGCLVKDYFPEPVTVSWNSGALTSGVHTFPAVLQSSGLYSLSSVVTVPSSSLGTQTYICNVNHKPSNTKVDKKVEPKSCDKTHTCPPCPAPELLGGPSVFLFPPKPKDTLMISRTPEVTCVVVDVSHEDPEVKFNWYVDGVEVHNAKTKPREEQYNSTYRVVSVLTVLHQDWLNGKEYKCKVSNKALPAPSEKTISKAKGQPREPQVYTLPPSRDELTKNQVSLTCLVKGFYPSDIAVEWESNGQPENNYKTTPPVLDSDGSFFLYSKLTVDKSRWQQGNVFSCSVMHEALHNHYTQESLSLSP
light: DIVMTQSPLSLPVTPGEPASISCQASESLVHSNRNTYLHWYLQKPGQSPQLLIYKVSNRFSGVPDRFSGSGSGTDFTLKISRVEAEDVGVYYCSQNTHVPPTFGQGTKVEIERTVAAPSVFIFPPSDEQLKSGTASVVCLLNNFYPREAKVQWKVDNALQSGNSQESVTEQDSKDSTYSLSSTLTLSKADYEKHKVYACEVTHQGLSSPVTKSFNRGEC
notes: also called Ho Ab I332_13S
B10: GpH7-B3 variant I332_10E/GpL16-k0 (antibody, human IgG1, kappa)
heavy: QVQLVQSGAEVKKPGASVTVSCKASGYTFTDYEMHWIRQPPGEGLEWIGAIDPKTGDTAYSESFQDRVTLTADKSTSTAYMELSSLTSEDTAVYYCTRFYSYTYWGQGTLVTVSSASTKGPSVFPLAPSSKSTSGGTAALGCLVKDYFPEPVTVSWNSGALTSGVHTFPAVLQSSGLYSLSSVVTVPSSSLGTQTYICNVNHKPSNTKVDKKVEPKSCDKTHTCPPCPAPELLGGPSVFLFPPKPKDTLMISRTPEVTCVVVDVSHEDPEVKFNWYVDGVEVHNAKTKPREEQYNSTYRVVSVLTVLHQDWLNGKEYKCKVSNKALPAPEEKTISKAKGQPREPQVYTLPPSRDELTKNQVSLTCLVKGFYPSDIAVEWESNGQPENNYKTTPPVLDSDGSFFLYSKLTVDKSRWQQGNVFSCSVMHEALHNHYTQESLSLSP
light: DIVMTQSPLSLPVTPGEPASISCQASESLVHSNRNTYLHWYLQKPGQSPQLLIYKVSNRFSGVPDRFSGSGSGTDFTLKISRVEAEDVGVYYCSQNTHVPPTFGQGTKVEIERTVAAPSVFIFPPSDEQLKSGTASVVCLLNNFYPREAKVQWKVDNALQSGNSQESVTEQDSKDSTYSLSSTLTLSKADYEKHKVYACEVTHQGLSSPVTKSFNRGEC
notes: also called Ho Ab I332_10E
B11: GpH7-B3 variant I332_03V/GpL16-k0 (antibody, human IgG1, kappa)
heavy: not shown
light: DIVMTQSPLSLPVTPGEPASISCQASESLVHSNRNTYLHWYLQKPGQSPQLLIYKVSNRFSGVPDRFSGSGSGTDFTLKISRVEAEDVGVYYCSQNTHVPPTFGQGTKVEIERTVAAPSVFIFPPSDEQLKSGTASVVCLLNNFYPREAKVQWKVDNALQSGNSQESVTEQDSKDSTYSLSSTLTLSKADYEKHKVYACEVTHQGLSSPVTKSFNRGEC
notes: also called Ho Ab I332_03V
B12: GpH7-B3 variant H268_09D/GpL16-k0 (antibody, human IgG1, kappa)
heavy: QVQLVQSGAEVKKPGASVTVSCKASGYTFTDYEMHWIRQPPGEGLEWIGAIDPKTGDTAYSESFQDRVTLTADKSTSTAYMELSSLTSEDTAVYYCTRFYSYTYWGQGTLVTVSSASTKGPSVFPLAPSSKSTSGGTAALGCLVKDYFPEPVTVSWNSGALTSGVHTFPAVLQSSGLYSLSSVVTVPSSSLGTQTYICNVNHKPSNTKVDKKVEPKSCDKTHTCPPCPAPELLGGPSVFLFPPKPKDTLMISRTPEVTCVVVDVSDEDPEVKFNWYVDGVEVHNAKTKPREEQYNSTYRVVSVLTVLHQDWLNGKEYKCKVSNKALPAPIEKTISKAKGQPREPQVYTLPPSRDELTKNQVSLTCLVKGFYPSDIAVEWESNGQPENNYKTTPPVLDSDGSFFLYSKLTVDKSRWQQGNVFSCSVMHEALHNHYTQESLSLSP
light: DIVMTQSPLSLPVTPGEPASISCQASESLVHSNRNTYLHWYLQKPGQSPQLLIYKVSNRFSGVPDRFSGSGSGTDFTLKISRVEAEDVGVYYCSQNTHVPPTFGQGTKVEIERTVAAPSVFIFPPSDEQLKSGTASVVCLLNNFYPREAKVQWKVDNALQSGNSQESVTEQDSKDSTYSLSSTLTLSKADYEKHKVYACEVTHQGLSSPVTKSFNRGEC
notes: also called Ho Ab H268_09D
B13: GpH7-B3 variant I332_04F/GpL16-k0 (antibody, human IgG1, kappa)
heavy: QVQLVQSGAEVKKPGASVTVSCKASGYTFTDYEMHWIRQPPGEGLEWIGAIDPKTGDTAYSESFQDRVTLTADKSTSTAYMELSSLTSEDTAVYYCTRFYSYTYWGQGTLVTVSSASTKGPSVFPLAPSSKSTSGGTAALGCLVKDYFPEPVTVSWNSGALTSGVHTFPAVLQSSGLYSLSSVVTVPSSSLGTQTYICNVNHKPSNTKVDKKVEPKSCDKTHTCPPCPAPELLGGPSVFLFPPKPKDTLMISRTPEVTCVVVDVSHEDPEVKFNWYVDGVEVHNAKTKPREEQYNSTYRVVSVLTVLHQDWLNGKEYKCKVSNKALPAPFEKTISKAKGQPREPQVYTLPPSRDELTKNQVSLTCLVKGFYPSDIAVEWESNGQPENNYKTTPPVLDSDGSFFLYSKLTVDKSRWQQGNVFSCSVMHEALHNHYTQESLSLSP
light: DIVMTQSPLSLPVTPGEPASISCQASESLVHSNRNTYLHWYLQKPGQSPQLLIYKVSNRFSGVPDRFSGSGSGTDFTLKISRVEAEDVGVYYCSQNTHVPPTFGQGTKVEIERTVAAPSVFIFPPSDEQLKSGTASVVCLLNNFYPREAKVQWKVDNALQSGNSQESVTEQDSKDSTYSLSSTLTLSKADYEKHKVYACEVTHQGLSSPVTKSFNRGEC
notes: also called Ho Ab I332_04F
B14: GpH7-B3 variant I332_14T/GpL16-k0 (antibody, human IgG1, kappa)
heavy: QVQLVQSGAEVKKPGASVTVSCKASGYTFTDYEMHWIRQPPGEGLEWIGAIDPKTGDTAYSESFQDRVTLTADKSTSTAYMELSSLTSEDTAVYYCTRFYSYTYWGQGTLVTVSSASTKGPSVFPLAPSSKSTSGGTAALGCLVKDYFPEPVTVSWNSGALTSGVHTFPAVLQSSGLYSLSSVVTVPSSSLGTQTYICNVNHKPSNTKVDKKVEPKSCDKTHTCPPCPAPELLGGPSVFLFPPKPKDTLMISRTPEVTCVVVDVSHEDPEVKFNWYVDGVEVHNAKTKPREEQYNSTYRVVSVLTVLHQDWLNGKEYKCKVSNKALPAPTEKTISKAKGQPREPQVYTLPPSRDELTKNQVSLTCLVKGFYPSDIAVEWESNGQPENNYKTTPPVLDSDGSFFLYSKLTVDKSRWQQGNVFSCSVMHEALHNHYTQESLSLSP
light: DIVMTQSPLSLPVTPGEPASISCQASESLVHSNRNTYLHWYLQKPGQSPQLLIYKVSNRFSGVPDRFSGSGSGTDFTLKISRVEAEDVGVYYCSQNTHVPPTFGQGTKVEIERTVAAPSVFIFPPSDEQLKSGTASVVCLLNNFYPREAKVQWKVDNALQSGNSQESVTEQDSKDSTYSLSSTLTLSKADYEKHKVYACEVTHQGLSSPVTKSFNRGEC
notes: also called Ho Ab I332_14T
B15: GpH7-B3 variant A330_12R/GpL16-k0 (antibody, human IgG1, kappa)
heavy: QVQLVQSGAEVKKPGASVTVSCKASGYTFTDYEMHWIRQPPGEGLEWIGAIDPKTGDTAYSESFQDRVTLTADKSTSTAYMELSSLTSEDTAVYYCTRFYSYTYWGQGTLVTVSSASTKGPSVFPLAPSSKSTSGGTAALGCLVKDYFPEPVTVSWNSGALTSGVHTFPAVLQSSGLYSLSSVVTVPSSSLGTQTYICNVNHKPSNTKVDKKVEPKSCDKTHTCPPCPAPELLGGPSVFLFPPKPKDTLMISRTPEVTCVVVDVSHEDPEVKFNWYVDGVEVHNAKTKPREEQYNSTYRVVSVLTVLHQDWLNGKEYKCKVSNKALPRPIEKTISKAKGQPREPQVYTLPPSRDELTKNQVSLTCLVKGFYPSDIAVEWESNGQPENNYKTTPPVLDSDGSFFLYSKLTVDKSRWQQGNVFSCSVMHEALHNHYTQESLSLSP
light: DIVMTQSPLSLPVTPGEPASISCQASESLVHSNRNTYLHWYLQKPGQSPQLLIYKVSNRFSGVPDRFSGSGSGTDFTLKISRVEAEDVGVYYCSQNTHVPPTFGQGTKVEIERTVAAPSVFIFPPSDEQLKSGTASVVCLLNNFYPREAKVQWKVDNALQSGNSQESVTEQDSKDSTYSLSSTLTLSKADYEKHKVYACEVTHQGLSSPVTKSFNRGEC
notes: also called Ho Ab A330_12R
B16: GpH7-B3 variant I332_09D/GpL16-k0 (antibody, human IgG1, kappa)
heavy: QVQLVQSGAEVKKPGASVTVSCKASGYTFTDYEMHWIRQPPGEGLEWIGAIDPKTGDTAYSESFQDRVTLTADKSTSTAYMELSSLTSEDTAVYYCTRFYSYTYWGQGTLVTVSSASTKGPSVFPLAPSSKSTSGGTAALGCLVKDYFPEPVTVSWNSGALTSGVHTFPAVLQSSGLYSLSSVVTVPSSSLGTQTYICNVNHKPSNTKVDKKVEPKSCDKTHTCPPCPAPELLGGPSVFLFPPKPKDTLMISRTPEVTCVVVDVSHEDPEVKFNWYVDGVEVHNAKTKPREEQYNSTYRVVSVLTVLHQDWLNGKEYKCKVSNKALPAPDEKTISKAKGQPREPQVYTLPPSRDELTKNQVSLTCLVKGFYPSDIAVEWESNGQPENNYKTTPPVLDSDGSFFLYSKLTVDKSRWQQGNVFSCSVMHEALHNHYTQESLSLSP
light: DIVMTQSPLSLPVTPGEPASISCQASESLVHSNRNTYLHWYLQKPGQSPQLLIYKVSNRFSGVPDRFSGSGSGTDFTLKISRVEAEDVGVYYCSQNTHVPPTFGQGTKVEIERTVAAPSVFIFPPSDEQLKSGTASVVCLLNNFYPREAKVQWKVDNALQSGNSQESVTEQDSKDSTYSLSSTLTLSKADYEKHKVYACEVTHQGLSSPVTKSFNRGEC
notes: also called Ho Ab I332_09D

What follows are binders tested against T1, FcγRIIa H (assay: SPR Biacore, relative binding).
For B1, the Ho/Con_2aH was 119 % of GpH7-B3/GpL16-k0 (=100).
With B2 the Ho/Con_2aH was 114 % of GpH7-B3/GpL16-k0 (=100).
B3 was tested, and the Ho/Con_2aH was 110 % of GpH7-B3/GpL16-k0 (=100).
B4 was tested, and the Ho/Con_2aH was 122 % of GpH7-B3/GpL16-k0 (=100).
For B5, the Ho/Con_2aH was 114 % of GpH7-B3/GpL16-k0 (=100).
In the case of B6, the Ho/Con_2aH is reported as 111 % of GpH7-B3/GpL16-k0 (=100).
In the case of B7, the Ho/Con_2aH is reported as 101 % of GpH7-B3/GpL16-k0 (=100).
B8 was tested, and the Ho/Con_2aH was 126 % of GpH7-B3/GpL16-k0 (=100).
In the case of B9, the Ho/Con_2aH is reported as 121 % of GpH7-B3/GpL16-k0 (=100).
For B10, the Ho/Con_2aH was 117 % of GpH7-B3/GpL16-k0 (=100).
With B11 the Ho/Con_2aH was 106 % of GpH7-B3/GpL16-k0 (=100).
With B12 the Ho/Con_2aH was 136 % of GpH7-B3/GpL16-k0 (=100).
In the case of B13, the Ho/Con_2aH is reported as 111 % of GpH7-B3/GpL16-k0 (=100).
For B14, the Ho/Con_2aH was 125 % of GpH7-B3/GpL16-k0 (=100).
In the case of B15, the Ho/Con_2aH is reported as 110 % of GpH7-B3/GpL16-k0 (=100).
With B16 the Ho/Con_2aH was 130 % of GpH7-B3/GpL16-k0 (=100).
